Reference: article doi:10.1101/2021.05.03.442466

What was measured:
HMGN1 = HMGN1 (UniProt P05114); assay: co-IP
HMGN2 = HMGN2 (UniProt P05204); assay: co-IP
[1] = target: salt stripped chicken erythrocyte mononucleosomes (chicken (endogenous in erythrocytes)); assay: native gel or EMSA

salt-stripped oligonucleosomes from mouse embryonic fibroblasts (complex)
H3K27ac level in HMGN-bound ON over input ON (dot blot) (HMGN1): > 3 fold
H3K27ac signal in HMGN1-bound over input nucleosomes (Western) (HMGN1): 2.7 fold
H3K27ac level in HMGN-bound ON over input ON (dot blot) (HMGN2): > 3 fold

HMGN2 (from UniProt P05204 1-90) (natural protein)
H3K27ac level in HA complexes over LA MNs (dot blot) [1]: 1.5 times

B1: HMGN1 (natural protein)
chain: MPKRKVSSAEGAAKEEPKRRSARLSAKPPAKVEAKPKKAAAKDKSSDKKVQTKGKRGAKGKQAEVANQETKEDLPAENGETKTEESPASDEAGEKEAKSD
H3K27ac level in HA complexes over LA MNs (dot blot) [1]: 1.5 times
H3K27ac level in HA over LA fraction (Western) [1]: 2 fold
percent of total MNs not shifted (LA fraction) at HMGN:MN ratio 2.0 [1]: 12%
percent of total MNs shifted (HA fraction) at HMGN1:MN ratio 0.2 [1]: 9%
